From patent US20120014870A1 (FORERUNNER PHARMA RESEARCH, published 2012)

B1: 22DA17 (antibody, IgG2b, V domains shown)
VH: QVQLQQSGAELVRPGVSVKLSCKASGYSLTTYWMNWVKQRPGQGLEWIGMIHPSDSETVINQKFKDKATLTVDKSSSTAYMQLSSPTSEDSAVYYCARWDYDYYFDYWGQGTTLTVSS
VL: DVLMTQTPLSLPVSLGDQASISCRSSQSIVHSNGNTYLEWYLQKPGQSPNLLIYKVSNRFSGVPDRFSGSGSGTDFTLKISRVEAEDLGVYYCFQGSHVPFTFGSGTKLEIK
notes: Mouse hybridoma antibody, isotype IgG2b; also called Bio-22DA17 (biotinylated form)
B2: 22DA23 (antibody, IgG1, V domains shown)
VH: EIQLQQSRPELVRPGASVKVSCQASGYAFTNYNMYWVKQSHGKSLEWIGYIDPYNDDTTYNQKFKGKATLTVDKSSSTAYMHLNSLTSEDSAVFYCARFRLGYYAMDYWGQGASVTVSS
VL: DIVLTQSPASLAVSLGQRATISCKASQSVDYDLDSYMNWYQQKPGQPPKLLIYVASNLESGIPARFSGSGSGTDFTLNIHPVEEEDAATYYCQQSNEDPFTFGSGTKLEIK
notes: Mouse hybridoma antibody, isotype IgG1; also called anti-human LGR7 monoclonal antibody 22DA23
B3: 22SD7 (antibody, IgG2a, V domains shown)
VH: QVQLQQPGAELVRPGASVKLSCKASGYTFTSYWMNWVKQRPEQGLEWIGRIDPYDSETHYNQKFKDKAILTVDKSSSTAYMQLSSLTSEDSAVYYCARWEVVAPWDYWGQGTTLTVSS
VL: DIVMTQAAPSVPVTPGESVSISCRSSKSLLHSNGNTYLYWFLQRPGQSPQLLIYRMSNLASGVPDRFSGSGSGTAFTLRISRVEAEDVGVYYCMQHLEYPWTFGGGTKLEIK
notes: Mouse hybridoma antibody, isotype IgG2a; also called anti-LGR7 monoclonal antibody 22SD7

What follows are binders tested against T1, HA-tagged full-length human LGR7 expressed on cells (HA-LGR7/DG44, HA-LGR7/BaF3) (human, UniProt Q9HBX9 1-757) (assay: flow cytometry, hybridoma supernatant on LGR7-expressing DG44 cells against parental DG44 cells).
T1 construct: Full-length human LGR7 with an N-terminal HA tag, forcedly expressed in DG44 (CHO-derived) or Ba/F3 cells; also called HA-LGR7/DG#24; HA-LGR7/DG44#24
T1 sequence: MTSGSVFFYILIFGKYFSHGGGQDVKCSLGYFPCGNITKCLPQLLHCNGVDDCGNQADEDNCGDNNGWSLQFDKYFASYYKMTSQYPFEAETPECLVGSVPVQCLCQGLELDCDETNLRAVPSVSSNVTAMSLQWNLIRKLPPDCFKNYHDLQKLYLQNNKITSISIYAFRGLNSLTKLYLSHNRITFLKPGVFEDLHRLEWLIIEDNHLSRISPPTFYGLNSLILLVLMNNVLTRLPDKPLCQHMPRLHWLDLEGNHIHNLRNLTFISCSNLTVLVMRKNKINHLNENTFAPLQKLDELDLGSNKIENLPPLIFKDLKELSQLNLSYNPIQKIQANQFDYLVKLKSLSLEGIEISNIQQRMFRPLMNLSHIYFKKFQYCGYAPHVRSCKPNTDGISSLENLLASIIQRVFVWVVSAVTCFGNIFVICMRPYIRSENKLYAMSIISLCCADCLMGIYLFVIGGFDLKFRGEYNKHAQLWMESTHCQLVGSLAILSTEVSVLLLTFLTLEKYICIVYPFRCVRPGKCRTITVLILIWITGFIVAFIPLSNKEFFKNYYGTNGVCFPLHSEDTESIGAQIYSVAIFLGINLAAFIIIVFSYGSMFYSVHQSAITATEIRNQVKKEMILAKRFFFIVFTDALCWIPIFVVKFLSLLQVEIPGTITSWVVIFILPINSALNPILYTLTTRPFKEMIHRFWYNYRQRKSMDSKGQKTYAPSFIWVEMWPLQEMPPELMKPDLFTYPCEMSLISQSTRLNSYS
Experimental: The binding of the obtained hybridomas to human LGR7/DG44 cells was evaluated by flow cytometry. The cell line expressing human LGR7 suspended in FACS buffer (2% FBS/PBS/0.05% NaN₃) was diluted to 1×10⁶ cells/mL using FACS buffer, and this was aliquoted into a Falcon 353910 round-bottom 96-well plate at 50 μL/well. The hybridoma culture supernatant diluted to a suitable concentration was added to the wells containing the cells, and this was reacted for 60 minutes on ice. Next, the cells were rinsed once with FACS buffer. As a secondary antibody, a goat F(ab′)₂ fragment anti-mouse IgG Fcγ-FITC (Beckman Coulter) was added to the wells containing the cells, and this was reacted for 30 minutes on ice. After the reaction, the supernatant was removed by centrifugation, and the cells were suspended in 100 μL of FACS buffer, and subjected to flow cytometry. The FACS Calibur (Becton Dickinson) was used for the flow cytometry. A gate for the viable cell population was established using a forward scatter/side scatter dot blot, and an FL1 histogram was produced for the cells included in the population, and their binding activity was evaluated.
The hybridoma supernatants were reacted with DG44 cells induced to express LGR7 and the parental DG44 cells, respectively. Thus, hybridomas that specifically react with LGR7-expressing cells were obtained. The hybridomas from the wells were made into single clones by the limiting dilution method. The isotype of each antibody was analyzed using an IsoStrip® mouse monoclonal antibody isotyping kit (Roche Diagnostics). As a result, the isotype of 22DA6, 22DA7, 22DA11, 22DA12, 22DA23, and 22DA24 is IgG1; and the isotype of 22DA4, 22DA10, 22SD7, 22SD25, 22SD31, and 22SD48 is IgG2a; and the isotype of 22DA17 and 22DA20 is IgG2b. Expansion culture of a single-clone hybridoma was performed, and then the antibody was purified from the culture supernatant using a protein G column according to the manual. The purified antibody was subjected to protein quantification by DC Protein Assay, etc.
B1: binds.
B2: binds.
B3: binds.
